Experimental data as given in patent US20250197467A1 (BRIGHT PEAK THERAPEUTICS, published 2025).

T1: IL-18 receptor (IL-18Rαβ) on cells (UniProt Q13478 19-541; O95256 20-599, limits assumed)
T1 sequence (looked up) 1: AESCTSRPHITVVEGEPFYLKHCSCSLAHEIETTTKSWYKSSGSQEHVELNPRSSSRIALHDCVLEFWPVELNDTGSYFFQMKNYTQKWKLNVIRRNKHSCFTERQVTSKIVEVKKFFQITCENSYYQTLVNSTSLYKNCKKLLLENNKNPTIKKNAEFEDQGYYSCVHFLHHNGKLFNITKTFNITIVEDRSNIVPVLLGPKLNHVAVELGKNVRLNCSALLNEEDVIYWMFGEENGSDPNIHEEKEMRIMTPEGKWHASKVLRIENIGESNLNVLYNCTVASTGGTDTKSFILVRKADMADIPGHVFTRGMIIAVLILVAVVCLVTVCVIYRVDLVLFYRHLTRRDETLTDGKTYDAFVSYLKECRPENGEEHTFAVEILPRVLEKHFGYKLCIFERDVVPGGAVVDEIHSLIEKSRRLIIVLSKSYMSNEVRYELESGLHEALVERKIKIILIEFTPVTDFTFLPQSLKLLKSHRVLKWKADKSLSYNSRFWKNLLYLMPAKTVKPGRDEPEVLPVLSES
T1 sequence (looked up) 2: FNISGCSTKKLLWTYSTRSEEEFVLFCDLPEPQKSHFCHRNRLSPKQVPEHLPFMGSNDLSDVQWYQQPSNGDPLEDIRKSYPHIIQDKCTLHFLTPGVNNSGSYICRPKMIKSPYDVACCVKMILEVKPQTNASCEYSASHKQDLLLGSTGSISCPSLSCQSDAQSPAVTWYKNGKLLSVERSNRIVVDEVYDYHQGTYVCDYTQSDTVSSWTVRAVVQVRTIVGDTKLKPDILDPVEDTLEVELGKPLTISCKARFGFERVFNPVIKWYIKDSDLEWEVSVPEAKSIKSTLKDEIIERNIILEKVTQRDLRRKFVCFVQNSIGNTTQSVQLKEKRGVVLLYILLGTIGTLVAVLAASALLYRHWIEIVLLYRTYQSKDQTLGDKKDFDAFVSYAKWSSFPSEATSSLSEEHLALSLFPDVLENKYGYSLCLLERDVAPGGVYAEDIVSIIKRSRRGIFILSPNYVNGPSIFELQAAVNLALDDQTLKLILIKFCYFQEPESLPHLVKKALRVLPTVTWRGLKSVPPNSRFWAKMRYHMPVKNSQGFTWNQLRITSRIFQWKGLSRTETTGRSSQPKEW


How the values were obtained:
[1] = molecular target: T1, IL-18 receptor (IL-18Rαβ) on cells; assay: cell-based or functional assay
[2] = molecular target: T1, IL-18 receptor (IL-18Rαβ) on cells; assay: cell-based or functional assay; remark: listed apart in the source

Row | Binder | HEK-Blue IL-18R reporter EC50 [1] [pM] | EC50 (IFNγ stimulation, NK92) [2] [nM]
1 | C140 (ligand) GGGGYFGKLKSKLSIIRNLNDQVLFIDQGNRPLFEDMTDSDARDNAPRTIFIISMYADSQPRGMAVAISVKCEKISTLSAENKIISFKEMNPPDNIKDTKSDIIFFQRSVPGHDNKMQFESSSYEGYFLAAEKERDLFKLILKKEDELGDRSIMFTVQNED | 2.5 | –
2 | SEQ ID NO 56 (ligand) YFGKLKSKLSVIRNLNDQVLFIDQGNRPLFEDMTDSDSRDNAPRTIFIISMYADSQPRGMAVTISVKCEKISTLSSENKIISFKEMNPPDNIKDTKSDIIFFQRSVPGHDNKMQFESSSYEGYFLASEKERDLFKLILKKEDELGDRSIMFTVQNED | 3.73 | –
3 | SEQ ID NO 44 (ligand) YAGKLKSKLSVIRNLNDQVLFIDQGNRPLFEDMTDSDCRDNAPRTIFIISMYADAQPRGMAVTISVKCEKISTLSCENKIISFKEMNPPDNIKDTKSDIIFFQRSVPGHDNKMQFESSSYEGYFLACEKERDLFKLILKKEDELGDRSIMFTVQNED | – | > 1000
4 | C183 (ligand) YFGKLKSKLSIIRNLNDQVLFIDQGNRPLFEDMTDSDARDNAPRTIFIISGYADSQPRGMAVAISVKCEKISTLSAENKIISFKEMNPPDNIKDTKSDIIFFQRSVPGHDNKMQFESSSYEGYFLAAEKERDLFKLILKKEDELGDRSIMFTVQNED | 0.1 | –
5 | C182 (ligand) YFGKLKSKLSIIRNLNDQVLFIDQGNRPLFEDMTDSDARDNAPRTIFIISMYADSQPRGMAVAISVKCEKISTLSAENKIISFKEMNPPDNIKDTKSDIIFFQRSVPGHDNKMQFESSSYEGYFLAAEKERDLFKLILKKEDELGDRSIMFTYQNED | 0.08 | –
6 | SEQ ID NO 55 (ligand) YFGKLESKLSVIRNLNDQVLFIDQGNRPLFEDMTDSDSRDNAPRTIFIISMYADSQPRGMAVAISVKSECISTLSSENKIISFKEMNPPDNIKDTKSDIIFFQRSVPGHDNKMQFESSSYEGYFLASEKERDLFKLILKKEDELGDRSIMFTVQNED | – | 17.2
7 | SEQ ID NO 48 (ligand) YFGKLESKLSVIRNLNDQVLFIDQGNRPLFEDMTDSDSRDNAPRTIFIISMYKDSQPRGMAVTISVKSECISTLSSENKIISFKEMNPPDNIKDTKSDIIFFQRSVPGHDNKMQFESSSYEGYFLASEKERDLFKLILKKEDELGDRSIMFTVQNED | – | 0.488
8 | SEQ ID NO 46 (ligand) YFGKLKSKLSVIRNLNDQVLFIDQGNRPLFEDMTDSDCRDNAPRTIFIISGYADAQPRGMAVTISVKCEKISTLSCENKIISFKEMNPPDNIKDTKSDIIFFQRSVPGHDNKMQFESSSYEGYFLACEKERDLFKLILKKEDELGDRSIMFTVQNED | – | 7.4
9 | SEQ ID NO 47 (ligand) YFGKLESKLSVIRNLNDQVLFIDQGNRPLFEDMTDSDSRDNAPRTIFIISMYKDSQPRGMAVTISVKSEKISTLSSENKIISFKEMNPPDNIKDTKSDIIFFQRSVPGHDNKMQFESSSYEGYFLASEKERDLFKLILKKEDELGDRSIMFTVQNED | – | 0.115
10 | SEQ ID NO 49 (ligand) YFGKLKSKLSVIRNLNDQVLFIDQGNRPLFEDMTDSDSRDNAPRTIFIISMYADAQPRGMAVTISVKSECISTLSSENKIISFKEMNPPDNIKDTKSDIIFFQRSVPGHDNKMQFESSSYEGYFLASEKERDLFKLILKKEDELGDRSIMFTVQNED | – | 58.5
11 | C179 (ligand) YFGKLKSELSIIRNLNDQVLFIDQGNRPLFEDMTDSDARDNAPRTIFIISMYADSQPRGMAVAISVKCEKISTLSAENKIISFKEMNPPDNIKDTKSDIIFFRRSVPGHDNKMQFESSSYEGYFLAAEKERDLFKLILKKEDELGDRSIMFTVQNED | 0.4 | –
12 | SEQ ID NO 43 (ligand) GFGKLKSKLSVIRNLNDQVLFIDQGNRPLFEDMTDSDCRDNAPRTIFIISMYADAQPRGMAVTISVKCEKISTLSCENKIISFKEMNPPDNIKDTKSDIIFFQRSVPGHDNKMQFESSSYEGYFLACEKERDLFKLILKKEDELGDRSIMFTVQNED | – | 6.12
13 | SEQ ID NO 35 (ligand) GAGKLKSKLSVIRNLNDQVLFIDQGNRPLFEDMTDSDCRDNAPRTIFIISGYAAAQPRGMAVAISVKCEKISTLSCENKIISFKEMNPPDNIKDTKSDIIFFQRSVPGHDNKMQFESSSYEGYFLACEKERDLFKLILKKEDELGDRSIMFTVQNED | – | > 55
14 | C174 (ligand) YFGKLKSLLSIIRNLNDQVLFIDQGNRPLFEDMTDSDARDNAPRTIFIISMYADSQPRGMAVAISVKCEKISTLSAENKIISFKEMNPPDNIKDTKSDIIFFQRSVPGHDNKMQFESSSYEGYFLAAEKERDLFKLILKKEDELGDRSIMFTVQNED | 0.29 | –
15 | C178 (ligand) YFGKLKSKLSIIRNLNDQVLFIDQGNRPLFEDMTDSDARDNAPRTIFIISMYADSQPRGMAVAISVKCEKISTLSAENKIISFKEMNPPDNIKDTKSDIIFFRRSVPGHDNKMQFESSSYEGYFLAAEKERDLFKLILKKEDELGDRSIMFTVQNED | 0.26 | –
16 | C181 (ligand) YFGKLKSKLSIIRNLNDQVLFIDQGNRPLFEDMTDSDARDNAPRTIFIISMYADSQPRGMAVAISVKCEKISTLSAENKIISFKEMNPPDNIKDTKSDIIFFQRSVPGHDNKMQFESSSYEGYFLAAEKERDLFKLILKKEDELGDRSIMFTEQNED | 0.1 | –
17 | SEQ ID NO 45 (ligand) YFGKLKSKLSVIRNLNDQVLFIDQGNRPLFEDMTDSDCRDNAPRTIFIISMYAAAQPRGMAVTISVKCEKISTLSCENKIISFKEMNPPDNIKDTKSDIIFFQRSVPGHDNKMQFESSSYEGYFLACEKERDLFKLILKKEDELGDRSIMFTVQNED | – | 30
18 | C176 (ligand) YFGKLKSKLSIIRNLNDQVLFIDQGNRPLFEDMTDSDARDNAPRTIFIMSMYADSQPRGMAVAISVKCEKISTLSAENKIISFKEMNPPDNIKDTKSDIIFFQRSVPGHDNKMQFESSSYEGYFLAAEKERDLFKLILKKEDELGDRSIMFTVQNED | 0.07 | –
19 | C177 (ligand) YFGKLKSKLSIIRNLNDQVLFIDQGNRPLFEDMTDSDARDNAPRTIFIRSMYADSQPRGMAVAISVKCEKISTLSAENKIISFKEMNPPDNIKDTKSDIIFFQRSVPGHDNKMQFESSSYEGYFLAAEKERDLFKLILKKEDELGDRSIMFTVQNED | 0.04 | –
20 | C184 (ligand) YFGKLRSKLSIIRNLNDQVLFIDQGNRPLFEDMTDSDARDNAPRTIFIISMYADSQPRGMAVAISVKCEKISTLSAENKIISFKEMNPPDNIKDTKSDIIFFQRSVPGHDNKMQFESSSYEGYFLAAEKERDLFKLILKKEDELGDRSIMFTVQNED | 0.04 | –
21 | C142 (ligand) MFGKLKSKLSIIRNLNDQVLFIDQGNRPLFEDMTDSDARDNAPRTIFIISMYADSQPRGMAVAISVKCEKISTLSAENKIISFKEMNPPDNIKDTKSDIIFFQRSVPGHDNKMQFESSSYEGYFLAAEKERDLFKLILKKEDELGDRSIMFTVQNED | 0.02 | –
22 | C141 (ligand) GYFGKLKSKLSIIRNLNDQVLFIDQGNRPLFEDMTDSDARDNAPRTIFIISMYADSQPRGMAVAISVKCEKISTLSAENKIISFKEMNPPDNIKDTKSDIIFFQRSVPGHDNKMQFESSSYEGYFLAAEKERDLFKLILKKEDELGDRSIMFTVQNED | 1.68 | –
23 | C192 (ligand) GYFGKLKSKLSIIRNLNDQVLFIDQGNRPLFEDMTDSDARDNAPRTIFIISGYADSQPRGMAVAISVKCEKISTLSAENKIISFKEMNPPDNIKDTKSDIIFFQRSVPGHDNKMQFESSSYEGYFLAAEKERDLFKLILKKEDELGDRSIMFTVQNED | 14 | –
